Values of other authors as cited in paper PMC4604100, “Melanocortin agonists stimulate lipolysis in human adipose tissue explants but not in adipocytes” (BMC Research Notes, 2015).

Tested on: MC1R
Conditions: ref [24]
Excerpt: It is still rather unclear as to what extent peripherally expressed MCRs regulate metabolism. […] In addition, POMC expression has been identified in peripheral tissues such as the skin, testes, ovaries, placenta, adrenal glands, gastrointestinal tract, immune cells and tumors. The peripheral melanocortin system was initially examined f ...

B1: Agouti/ASIP: agouti/agouti signaling protein, endogenous melanocortin receptor antagonist (protein, UniProt P42127 23-132, looked up)
Agouti-signaling protein: HLPPEEKLRDDRSLRSNSSVNLLDVPSVSIVALNKKSKQIGRKAAEKKRSSKKEASMKKVVRPRTPLSAPCVATRNSCKPPAPACCDPCASCQCRFFRSACSCRVLSLNC
Q: With B1 as the molecule, how does the “antagonism on MC1R (in words)” value read?
A: The value was “high affinity antagonist”.
